The supplement of paper PMC11780869

Tested on: Bacillus subtilis
Experiment: cleaved RNA product abundance (RNA/gDNA barcode ratio) relative to median wild-type variant (ratio to wild type); higher = more accumulation of the downstream cleavage product
Settings: cleavage site: cggR-gapA (positions -7 to +36 mutated)
Summary of the method: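 B. subtilis strains with chromosomally integrated reporter mRNAs (truncated aprE or tetM) holding barcoded, mutagenized RNase Y cleavage-site windows grew in LB at 37°C from OD600 0.0003 to 0.3. Cleaved product abundance is each construct's RNA:gDNA barcode ratio, scaled to the median construct with the unmutated site. It came from sequencing barcodes of gel-selected, reverse-transcribed cleaved RNA and of genomic DNA.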

[1] = experiment (reporter, strain, medium): exp 2b: truncated aprE reporter, strain BJT200
[2] = experiment (reporter, strain, medium): exp 4a: truncated aprE reporter, strain BJT201 with 2% xylose (RNase J1 expressed)

Sequence	cleaved RNA product abundance [1]	cleaved RNA product abundance [2]	cleaved RNA product abundance (experiment (reporter, strain, medium): exp 6: tetM reporter, strain 168)
ACAGACGAAGGAGCCGCAAAGAAGTTATTAAGGAATGAATATTCCCTCAATATAAATATCTCTCACTTATTTAAA	0.178	0.279	–
ACAGACGAAGGAGCCGCAAAGAAGTTATTAAGGAATGAATCATCCCTCAATATAAATATCTCTCACTTATTTAAA	–	0.151	–
ACAGACGAAGGAGCCGCAAAGAAGTTATTAAGGAATGAATGATCCCTCAATATAAATATCTCTCACTTATTTAAA	–	0.0629	–
ACAGACGAAGGAGCCGCAAAGAAGTTATTAAGGAATGAATTATCCCTCAATATAAATATCTCTCACTTATTTAAA	–	0.0807	–
ACAGACGAAGGAGCCGCAAAGAAGTTATTAAGGAATGACTAATCCCTCAATATAAATATCTCTCACTTATTTAAA	–	0.103	–
ACAGACGAAGGAGCCGCAAAGAAGTTATTAAGGAATGAGTAATCCCTCAATATAAATATCTCTCACTTATTTAAA	0.119	0.131	–
ACAGACGAAGGAGCCGCAAAGAAGTTATTAAGGAATGATTAATCCCTCAATATAAATATCTCTCACTTATTTAAA	0.115	0.11	–
ACAGACGAAGGAGCCGCAAAGAAGTTATTAAGGAATGTATAATCCCTCAATATAAATATCTCTCACTTATTTAAA	0.104	0.169	–
ACAGACGAAGGAGCCGCAAAGAAGTTATTAAGGAATTAATAATCCCTCAATATAAATATCTCTCACTTATTTAAA	0.103	0.137	–
ACAGACGAAGGAGCCGCAAAGAAGTTATTAAGGAATTATTAATCCCTCAATATAAATATCTCTCACTTATTTAAA	–	0.203	–
ACAGACGAAGGAGCCGCAAAGAAGTTATTAAGGACTGAATAATCCCTCAATATAAATATCTCTCACTTATTTAAA	0.0791	0.0888	–
ACAGACGAAGGAGCCGCAAAGAAGTTATTAAGGAGTGAATAATCCCTCAATATAAATATCTCTCACTTATTTAAA	–	0.171	–
ACAGACGAAGGAGCCGCAAAGAAGTTATTAAGGATGAATAATCCCTCAATATAAATATCTCTCACTTATTTAAAG	–	0.294	–
ACAGACGAAGGAGCCGCAAAGAAGTTATTAAGGATTGAATAATCCCTCAATATAAATATCTCTCACTTATTTAAA	0.217	0.301	–
ACAGACGAAGGAGCCGCAAAGAAGTTATTAAGGCAAGAATAATCCCTCAATATAAATATCTCTCACTTATTTAAA	0.104	0.115	–
ACAGACGAAGGAGCCGCAAAGAAGTTATTAAGGCAGGAATAATCCCTCAATATAAATATCTCTCACTTATTTAAA	0.102	0.167	–
ACAGACGAAGGAGCCGCAAAGAAGTTATTAAGGCATAAATAATCCCTCAATATAAATATCTCTCACTTATTTAAA	0.0865	0.107	–
ACAGACGAAGGAGCCGCAAAGAAGTTATTAAGGCATGAAAAATCCCTCAATATAAATATCTCTCACTTATTTAAA	0.0832	0.0945	–
ACAGACGAAGGAGCCGCAAAGAAGTTATTAAGGCATGAACAATCCCTCAATATAAATATCTCTCACTTATTTAAA	–	0.0684	–

Sequence	cleaved RNA product abundance [1]	cleaved RNA product abundance [2]	cleaved RNA product abundance (experiment (reporter, strain, medium): exp 6: tetM reporter, strain 168)
ACAGACGAAGGAGCCGCAAAGAAGTTATTAAGGCATGAATAAACCCTCAATATAAATATCTCTCACTTATTTAAA	–	0.136	–
ACAGACGAAGGAGCCGCAAAGAAGTTATTAAGGCATGAATAATACCTCAATATAAATATCTCTCACTTATTTAAA	0.0988	0.153	–
ACAGACGAAGGAGCCGCAAAGAAGTTATTAAGGCATGAATAATCACTCAATATAAATATCTCTCACTTATTTAAA	0.118	0.0873	–
ACAGACGAAGGAGCCGCAAAGAAGTTATTAAGGCATGAATAATCCATCAATATAAATATCTCTCACTTATTTAAA	0.102	0.114	–
ACAGACGAAGGAGCCGCAAAGAAGTTATTAAGGCATGAATAATCCCACAATATAAATATCTCTCACTTATTTAAA	0.0968	0.0597	–
ACAGACGAAGGAGCCGCAAAGAAGTTATTAAGGCATGAATAATCCCCCAATATAAATATCTCTCACTTATTTAAA	0.11	0.0993	–
ACAGACGAAGGAGCCGCAAAGAAGTTATTAAGGCATGAATAATCCCTAAATATAAATATCTCTCACTTATTTAAA	0.114	0.151	–
ACAGACGAAGGAGCCGCAAAGAAGTTATTAAGGCATGAATAATCCCTCAAAATAAATATCTCTCACTTATTTAAA	0.0982	0.141	–
ACAGACGAAGGAGCCGCAAAGAAGTTATTAAGGCATGAATAATCCCTCAACATAAATATCTCTCACTTATTTAAA	0.119	0.112	–
ACAGACGAAGGAGCCGCAAAGAAGTTATTAAGGCATGAATAATCCCTCAAGATAAATATCTCTCACTTATTTAAA	0.0843	0.142	–
ACAGACGAAGGAGCCGCAAAGAAGTTATTAAGGCATGAATAATCCCTCAATAAAAATATCTCTCACTTATTTAAA	–	0.0606	–
ACAGACGAAGGAGCCGCAAAGAAGTTATTAAGGCATGAATAATCCCTCAATACAAATATCTCTCACTTATTTAAA	–	0.058	–
ACAGACGAAGGAGCCGCAAAGAAGTTATTAAGGCATGAATAATCCCTCAATAGAAATATCTCTCACTTATTTAAA	–	0.0906	–
ACAGACGAAGGAGCCGCAAAGAAGTTATTAAGGCATGAATAATCCCTCAATATAAAAATCTCTCACTTATTTAAA	–	0.0882	–
ACAGACGAAGGAGCCGCAAAGAAGTTATTAAGGCATGAATAATCCCTCAATATAAATAACTCTCACTTATTTAAA	0.0904	0.111	–
ACAGACGAAGGAGCCGCAAAGAAGTTATTAAGGCATGAATAATCCCTCAATATAAATAGCTCTCACTTATTTAAA	0.0721	0.0902	–
ACAGACGAAGGAGCCGCAAAGAAGTTATTAAGGCATGAATAATCCCTCAATATAAATATCTCTCACTATTTAAAG	–	0.146	–
ACAGACGAAGGAGCCGCAAAGAAGTTATTAAGGCATGAATAATCCCTCAATATAAATATCTCTCACTTATTTAAA	0.0901	0.125	0.124
ACAGACGAAGGAGCCGCAAAGAAGTTATTAAGGCATGAATAATCCCTCAATATAAATTTCTCTCACTTATTTAAA	0.0999	0.0847	–

Sequence	cleaved RNA product abundance [1]	cleaved RNA product abundance [2]	cleaved RNA product abundance (experiment (reporter, strain, medium): exp 6: tetM reporter, strain 168)
ACAGACGAAGGAGCCGCAAAGAAGTTATTAAGGCATGAATAATCCCTCAATATAATTATCTCTCACTTATTTAAA	0.0921	0.095	–
ACAGACGAAGGAGCCGCAAAGAAGTTATTAAGGCATGAATAATCCCTCAATATACATATCTCTCACTTATTTAAA	0.112	0.129	–
ACAGACGAAGGAGCCGCAAAGAAGTTATTAAGGCATGAATAATCCCTCAATATATATATCTCTCACTTATTTAAA	0.106	0.11	–
ACAGACGAAGGAGCCGCAAAGAAGTTATTAAGGCATGAATAATCCCTCAATATGAATATCTCTCACTTATTTAAA	–	0.0354	–
ACAGACGAAGGAGCCGCAAAGAAGTTATTAAGGCATGAATAATCCCTCAATATTAATATCTCTCACTTATTTAAA	–	0.0489	–
ACAGACGAAGGAGCCGCAAAGAAGTTATTAAGGCATGAATAATCCCTCAATGTAAATATCTCTCACTTATTTAAA	–	0.0571	–
ACAGACGAAGGAGCCGCAAAGAAGTTATTAAGGCATGAATAATCCCTCAATTTAAATATCTCTCACTTATTTAAA	0.059	0.0584	–
ACAGACGAAGGAGCCGCAAAGAAGTTATTAAGGCATGAATAATCCCTCACTATAAATATCTCTCACTTATTTAAA	0.083	0.136	–
ACAGACGAAGGAGCCGCAAAGAAGTTATTAAGGCATGAATAATCCCTCAGTATAAATATCTCTCACTTATTTAAA	–	0.0715	–
ACAGACGAAGGAGCCGCAAAGAAGTTATTAAGGCATGAATAATCCCTCATTATAAATATCTCTCACTTATTTAAA	0.0915	0.0852	–
ACAGACGAAGGAGCCGCAAAGAAGTTATTAAGGCATGAATAATCCCTCCATATAAATATCTCTCACTTATTTAAA	0.0936	–	–
ACAGACGAAGGAGCCGCAAAGAAGTTATTAAGGCATGAATAATCCCTCGATATAAATATCTCTCACTTATTTAAA	–	0.0814	–
ACAGACGAAGGAGCCGCAAAGAAGTTATTAAGGCATGAATAATCCCTCTATATAAATATCTCTCACTTATTTAAA	0.0791	0.0965	–
ACAGACGAAGGAGCCGCAAAGAAGTTATTAAGGCATGAATAATCCCTGAATATAAATATCTCTCACTTATTTAAA	0.102	0.0864	–
ACAGACGAAGGAGCCGCAAAGAAGTTATTAAGGCATGAATAATCCCTTAATATAAATATCTCTCACTTATTTAAA	0.411	0.291	–
ACAGACGAAGGAGCCGCAAAGAAGTTATTAAGGCATGAATAATCCGTCAATATAAATATCTCTCACTTATTTAAA	–	0.0753	–
ACAGACGAAGGAGCCGCAAAGAAGTTATTAAGGCATGAATAATCCTTCAATATAAATATCTCTCACTTATTTAAA	0.115	0.13	–
ACAGACGAAGGAGCCGCAAAGAAGTTATTAAGGCATGAATAATCGCTCAATATAAATATCTCTCACTTATTTAAA	–	0.0686	–
ACAGACGAAGGAGCCGCAAAGAAGTTATTAAGGCATGAATAATCTCTCAATATAAATATCTCTCACTTATTTAAA	0.0853	0.125	–
